Experimental data taken from publication PMC3834829, “A signature motif mediating selective interactions of BCL11A with the NR2E/F subfamily of orphan nuclear receptors” (Nucleic Acids Research, 2013).

B1: AAD-COUP-TFII-LBD-(144–414) [not stated] / LexA-COUP-TFII-LBD-(144–414) [not stated] (parent)
chain 1: MRREAVQRGRMPPTQPTHGQFALTNGDPLNCHSYLSGYISLLLRAEPYPTSRFGSQCMQPNNIMGIENICELAARMLFSAVEWARNIPFFPDLQITDQVALLRLTWSELFVLNAAQCSMPLHVAPLLAAAGLHASPMSADRVVAFMDHIRIFQEQVEKLKALHVDSAEYSCLKAIVLFTSDACGLSDVAHVESLQEKSQCALEEYVRSQYPNQPTRFGKLLLRLPSLRTVSSSVIEQLFFVRLVGKTPIETLIRDMLLSGSSFNWPYMAIQ
chain 2: B1 chain 1

Variants of: B1
Test: yeast two-hybrid
Details: with LexA-COUP-TFII-LBD-(144–414);; read off a plot

Variant	response
chain 1 MRREAVQRGRMPPTQPTHGQFALTNGDPLNCHSYLSGYISLLLRAEPYPTSRFGSQCMQPNNIMGIENICELAARMLFSAVEWARNIPFFPDLQATDQVALLRLTWSELFVLNAAQCSMPLHVAPLLAAAGLHASPMSADRVVAFMDHIRIFQEQVEKLKALHVDSAEYSCLKAIVLFTSDACGLSDVAHVESLQEKSQCALEEYVRSQYPNQPTRFGKLLLRLPSLRTVSSSVIEQLFFVRLVGKTPIETLIRDMLLSGSSFNWPYMAIQ [chain 1 I95A]	500 nmol/mg/min
chain 1 MRREAVQRGRMPPTQPTHGQFALTNGDPLNCHSYLSGYISLLLRAEPYPTSRFGSQCMQPNNIMGIENICELAARMLFSAVEWAANIPFFPDLQITDQVALLRLTWSELFVLNAAQCSMPLHVAPLLAAAGLHASPMSADRVVAFMDHIRIFQEQVEKLKALHVDSAEYSCLKAIVLFTSDACGLSDVAHVESLQEKSQCALEEYVRSQYPNQPTRFGKLLLRLPSLRTVSSSVIEQLFFVRLVGKTPIETLIRDMLLSGSSFNWPYMAIQ [chain 1 R85A]	390 nmol/mg/min
chain 1 MRREAVQRGRMPPTQPTHGQFALTNGDPLNCHSYLSGYISLLLRAEPYPTSRFGSQCMQPNNIMGIENICELAARMLASAVEWARNIPFFPDLQITDQVALLRLTWSELFVLNAAQCSMPLHVAPLLAAAGLHASPMSADRVVAFMDHIRIFQEQVEKLKALHVDSAEYSCLKAIVLFTSDACGLSDVAHVESLQEKSQCALEEYVRSQYPNQPTRFGKLLLRLPSLRTVSSSVIEQLFFVRLVGKTPIETLIRDMLLSGSSFNWPYMAIQ [chain 1 F78A]	410 nmol/mg/min

Second part, the variant after the results:

response	Variant
470 nmol/mg/min	chain 1 MRREAVQRGRMPPTQPTHGQFALTNGDPLNCHSYLSGYISLLLRAEPYPTSRFGSQCMQPNNIMGIENICELAARMLFSAVEWARNIPFFPDLQITDQVALLALTWSELFVLNAAQCSMPLHVAPLLAAAGLHASPMSADRVVAFMDHIRIFQEQVEKLKALHVDSAEYSCLKAIVLFTSDACGLSDVAHVESLQEKSQCALEEYVRSQYPNQPTRFGKLLLRLPSLRTVSSSVIEQLFFVRLVGKTPIETLIRDMLLSGSSFNWPYMAIQ [chain 1 R103A]
460 nmol/mg/min	chain 1 MRREAVQRGRMPPTQPTHGQFALTNGDPLNCHSYLSGYISLLLRAEPYPTSRFGSQCMQPNNIMGIENICELAARMLFSAVEWARNIPFFPDLQITDQAALLRLTWSELFVLNAAQCSMPLHVAPLLAAAGLHASPMSADRVVAFMDHIRIFQEQVEKLKALHVDSAEYSCLKAIVLFTSDACGLSDVAHVESLQEKSQCALEEYVRSQYPNQPTRFGKLLLRLPSLRTVSSSVIEQLFFVRLVGKTPIETLIRDMLLSGSSFNWPYMAIQ [chain 1 V99A]
